The values below come from article PMC3809846 (International journal of cancer. Journal international du …, 2012).

No end group written: not given here.

The target of test [1] is podoplanin expressed on brain tumor cells (Homo sapiens, UniProt Q86YL7). Description: flow cytometry on cells. In general terms: A flow cytometer gives signals particle by particle.
For test [2], the target named is T1, biotinylated podoplanin peptide (hpp38-51) (Homo sapiens, UniProt Q86YL7, also: biotin, position not given here).
T1 chain: EGGVAMPGAEDDVV
Kind of test: SPR. A general note: Surface plasmon resonance follows binding to a sensor surface in real time, without labels.

Chain of podoplanin expressed on brain tumor cells (Q86YL7 23-162): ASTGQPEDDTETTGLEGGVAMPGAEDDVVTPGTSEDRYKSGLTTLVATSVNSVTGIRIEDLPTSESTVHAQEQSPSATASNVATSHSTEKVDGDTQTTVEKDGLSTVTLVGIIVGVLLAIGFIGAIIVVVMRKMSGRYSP

B1: NZ-1 monoclonal antibody (antibody, V domains shown)
VH: EVQLVESGGGLVQPGRSLKLSCAASGFTFSNYGMAWVRQTPTKGLEWIASISAGGDKTYYGDSVKGRFSISRDNAKTTHYLQMDSLRSEDTATYYCAKTSRVYFDYWGQGVMVTVSS
VL: QFVLTQPNSVSTNLGSTVKLSCKRSTGNIGSNYVNWYQQHEGRSPTTMIYRDDKRPDGVPDRFSGSIDRSSNSALLTINNVQTEDEADYFCHSYSSGIVFGGGTKLTVL
B1: the binding result in test [1] is “binds”.

B2: NZ-1-(scdsFv) (scFv, V domains shown)
VH: EVQLVESGGGLVQPGRSLKLSCAASGFTFSNYGMAWVRQTPTKCLEWIASISAGGDKTYYGDSVKGRFSISRDNAKTTHYLQMDSLRSEDTATYYCAKTSRVYFDYWGQGVMVTVSS
VL: QFVLTQPNSVSTNLGSTVKLSCKRSTGNIGSNYVNWYQQHEGRSPTTMIYRDDKRPDGVPDRFSGSIDRSSNSALLTINNVQTEDEADYFCHSYSSGIVFGGCTKLTVL
In test [2], B2 registered a Ka of 4.8e+07 M⁻¹.
